In article PMC8878332 one finds Kd data, which are given here for one substance.

pKd: −log10 of the molar value.

This test has as its target Human plasminogen (human). Put plainly: ELISA; plasminogen immobilised on plate wells (1 ug in 100 uL PBS), blocked with 1% gelatin; AdcA 0-1 uM in PBS, 1.5 h at 37 C; bound AdcA detected with rabbit anti-AdcA serum; apparent KD from the fit to total binding saturation (GraphPad Prism); MntC run as control; EACA (0.1-10 mM) or NaCl (25-800 mM) added in further panels. (In general: An ELISA detects its analyte on a solid surface through an enzyme-linked reagent.)

A word on the pKd: it is the negative decadic logarithm of the Kd, by convention in mol/L. In the case of “Staphylococcus aureus zinc transport protein AdcA, recombinant full-length protein (natural protein)”, the pKd was 7.35.
